Test results: article PMC12420816 (Nature Communications, 2025)

Key:
[1] = biological target: SARS-CoV-2 nsp7-11 polyprotein, tag-free with native (authentic) termini (SARS-CoV-2); experiment: native MS
[2] = biological target: the molecule itself; experiment: native MS

Molecule | stoichiometry N [1] | stoichiometry N [2]
SARS-CoV-2 nsp7-11 polyprotein, tag-free with native (authentic) termini (domain or fragment) | 2 | –
MERS-CoV mature nsp7, released from nsp7-11 by SARS-CoV-2 M^pro (natural protein) SKLTDLKCTSVVLLSVLQQLHLEANSRAWAFCVKCHNDILAATDPSEAFEKFVSLFATLMTFSGNVDLDALASDIFDTPSVLQ | – | 2
